Substitutions are numbered along the chain they refer to.

Assay in all cases: SPR, antibody captured, C2 as analyte;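 further: biacore SPR at 37 °C, anti-C2 mAbs captured via goat anti-human IgG on CM5 chips, double-referenced sensorgrams fit to a 1:1 kinetic or steady-state model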
One experiment addresses T1, human C2 L706A (human, UniProt P06681 21-752).
T1 sequence: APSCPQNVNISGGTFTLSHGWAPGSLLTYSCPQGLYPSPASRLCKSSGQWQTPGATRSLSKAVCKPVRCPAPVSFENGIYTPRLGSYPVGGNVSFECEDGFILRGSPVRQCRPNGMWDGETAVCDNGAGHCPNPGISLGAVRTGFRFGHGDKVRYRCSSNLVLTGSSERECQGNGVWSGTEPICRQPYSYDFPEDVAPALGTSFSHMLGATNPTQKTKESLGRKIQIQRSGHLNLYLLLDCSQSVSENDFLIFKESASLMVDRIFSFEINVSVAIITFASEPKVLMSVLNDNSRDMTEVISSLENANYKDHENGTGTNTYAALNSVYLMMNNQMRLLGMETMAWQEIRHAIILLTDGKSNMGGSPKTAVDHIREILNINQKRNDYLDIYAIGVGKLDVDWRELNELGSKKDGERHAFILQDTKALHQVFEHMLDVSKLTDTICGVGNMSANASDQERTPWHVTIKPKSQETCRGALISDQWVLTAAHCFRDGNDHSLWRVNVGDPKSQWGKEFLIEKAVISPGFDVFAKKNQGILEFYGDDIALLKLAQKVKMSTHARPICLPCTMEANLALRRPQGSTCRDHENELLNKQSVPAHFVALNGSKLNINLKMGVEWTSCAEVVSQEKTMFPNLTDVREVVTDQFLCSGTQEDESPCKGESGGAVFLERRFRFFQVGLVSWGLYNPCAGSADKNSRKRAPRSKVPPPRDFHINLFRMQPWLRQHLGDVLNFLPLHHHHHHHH

A further experiment addresses T2, human C2 E556A (human, UniProt P06681 21-752).
T2 sequence: T1 sequence with E536A, A686L

A further experiment concerns the target T3, human C2 R510A (human, UniProt P06681 21-752).
T3 sequence: T1 sequence with R490A, A686L

The next experiment has as its target T4, human C2 G707A (human, UniProt P06681 21-752).
T4 sequence: T1 sequence with A686L, G687A

B1: RF16-226 (antibody, human IgG4 S228P, lambda)
heavy: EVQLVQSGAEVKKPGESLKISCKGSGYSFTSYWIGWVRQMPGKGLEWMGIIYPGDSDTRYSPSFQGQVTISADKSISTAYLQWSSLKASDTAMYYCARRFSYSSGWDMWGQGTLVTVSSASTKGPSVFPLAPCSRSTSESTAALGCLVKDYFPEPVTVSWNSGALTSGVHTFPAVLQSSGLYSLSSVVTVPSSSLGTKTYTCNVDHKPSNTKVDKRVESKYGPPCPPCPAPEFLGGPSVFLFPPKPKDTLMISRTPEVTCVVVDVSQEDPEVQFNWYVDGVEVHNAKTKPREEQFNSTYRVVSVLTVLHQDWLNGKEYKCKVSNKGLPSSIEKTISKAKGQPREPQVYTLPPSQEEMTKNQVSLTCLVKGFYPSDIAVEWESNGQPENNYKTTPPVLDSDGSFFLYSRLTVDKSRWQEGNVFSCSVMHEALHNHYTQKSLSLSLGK
light: SYELTQPPSVSVSPGQTARITCSGDALTSKYVAWYQQKSGLAPLLVIYEDTRRPSGIPAKFSGSSSGSVATLTISGAHGDDEADYYCYSTDASGHQRVFGGGTKLTVLSQPKAAPSVTLFPPSSEELQANKATLVCLISDFYPGAVTVAWKADGSPVKAGVETTKPSKQSNNKYAASSYLSLTPEQWKSHRSYSCQVTHEGSTVEKTVAPTECS
notes: pH-dependent anti-C2 antibody from a phage display library; also called WT
What is called Kd is the constant that tells how readily two partners part at equilibrium. Read a low Kd as higher affinity. B1: the Kd with human C2 L706A came to 229 nM; in the experiment with human C2 E556A, 5.9 nM; with human C2 R510A, 110 nM; with human C2 G707A, 19.4 nM.

The values are drawn from US20220332804A1 (CSL INNOVATION, published 2022).
